# Measured values as given in US20240076396A1 (Regeneron, published 2024).
# T1: human GITR expressed on the cell surface (human, UniProt Q9Y5U5 26-241)
# T1 construct: also called hGITR; Jurkat/hCD20/hGITR cells
# T1 sequence: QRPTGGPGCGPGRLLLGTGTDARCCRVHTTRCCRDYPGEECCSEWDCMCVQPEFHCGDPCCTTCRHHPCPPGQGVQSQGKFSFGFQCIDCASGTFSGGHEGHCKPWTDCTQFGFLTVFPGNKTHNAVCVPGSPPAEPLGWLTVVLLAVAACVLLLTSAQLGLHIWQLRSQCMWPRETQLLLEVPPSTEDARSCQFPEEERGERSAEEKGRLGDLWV
# T2: hGITR.mFc (dimeric recombinant human GITR ectodomain protein, mouse Fc fusion) (human)
# T2 construct: also called dimeric human GITR; dimeric GITR
# T2 chain: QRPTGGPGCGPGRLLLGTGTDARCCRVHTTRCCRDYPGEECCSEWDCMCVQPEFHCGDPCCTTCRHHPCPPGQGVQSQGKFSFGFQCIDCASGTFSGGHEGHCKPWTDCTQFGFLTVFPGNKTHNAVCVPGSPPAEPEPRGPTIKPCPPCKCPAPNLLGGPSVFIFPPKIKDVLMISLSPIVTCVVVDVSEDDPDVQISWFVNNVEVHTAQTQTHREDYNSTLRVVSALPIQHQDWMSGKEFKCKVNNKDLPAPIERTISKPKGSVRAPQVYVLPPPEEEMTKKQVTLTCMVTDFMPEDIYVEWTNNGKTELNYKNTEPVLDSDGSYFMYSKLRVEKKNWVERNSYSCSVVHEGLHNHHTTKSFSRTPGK
# T3: hGITR.mmH (soluble monomeric recombinant human GITR ectodomain protein) (human)
# T3 construct: also called monomeric human GITR
# T3 chain: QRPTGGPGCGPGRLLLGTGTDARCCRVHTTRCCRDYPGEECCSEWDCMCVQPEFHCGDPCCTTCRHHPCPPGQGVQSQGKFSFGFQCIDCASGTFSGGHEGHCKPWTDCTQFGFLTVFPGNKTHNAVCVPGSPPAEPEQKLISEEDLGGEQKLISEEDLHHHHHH
# How the values were obtained:
# [1] = biological target: T1, human GITR expressed on the cell surface; test: flow cytometry on Jurkat/hCD20/hGITR cells
# Description: FIG. 5A, FIG. 5B, and FIG. 5C depict cell-surface binding of mAb1 and IgG1 isotype control at a range of concentrations (18 pM to 300 nM) on Jurkat/hCD20 (FIG. 5A), Jurkat/hCD20/hGITR (FIG. 5B), and Jurkat/hCD20/MfGITR (FIG. 5C) cells. Binding was detected using an Alexa647-labeled anti-human IgG by flow cytometry. Fluorescence intensity was plotted as geometric MFI. h, Human; Mf, Macaca fascicularis (cynomolgus monkey).
# (§1) Flow cytometry was used to evaluate mAb1 binding to Jurkat/hCD20/hGITR cells and Jurkat/hCD20/MfGITR cells. Jurkat/hCD20 cells were used as a negative control cell line for GITR binding. Cells were added to a 96-well V-bottom plate (2×10⁵ to 4×10⁵ cells/well) and incubated in Fc block solution, followed by successive incubation on ice with primary antibody (mAb1 or IgG1 isotype control) at final concentrations ranging from 18 pM to 300 nM and a secondary antibody (AF647-conjugated anti-human IgG) at 5 μg/mL. […] Data were analyzed with Flow.lo software. For EC₅₀ (effective concentration at 50% activity) determinations, measured geometric MFI values were analyzed using a 4-parameter logistic equation over a 9-point response curve with GraphPad Prism. The fold binding was determined by taking the ratio of the highest MFI on the curve to the MFI of the wells containing secondary antibody only.
# [2] = biological target: T1, human GITR expressed on the cell surface; test: cell-based or functional assay
# [3] = biological target: T2, hGITR.mFc (dimeric recombinant human …); test: SPR Biacore 2000 25C; CHOt supernatant antibody captured on anti-human Fc; 50 nM hGITR.mFc
# Description: Biacore experiments for antibodies secreted in conditioned culture medium were performed as follows. Using a Biacore 2000 instrument at 25° C., antibodies were captured for 80 seconds at a flow rate of 8 uL/min on a CM5 anti-humanFc-coupled surface. Approximately 1000-2000 RU of each antibody were captured. 100 nM hGITR.mmH (soluble monomeric hGITR, SEQ ID NO: 45) or 50 nM hGITR.mFc (dimeric Macaca fasicularis GITR, SEQ ID NO: 46) were injected over this surface for 2 minutes at a flow rate of 50 uL/min. Dissociation was measured for 2 minutes. The KD and t_{1/2} were calculated by fitting the double-referenced sensorgrams to a 1:1 binding model.
# [4] = biological target: T3, hGITR.mmH (soluble monomeric …); test: SPR Biacore T-200; purified antibody captured on anti-human Fc; 10 nM hGITR.mmH
# Description: (§2) For purified antibodies, Biacore experiments were performed as follows. Using a Biacore T-200 instrument, antibodies were captured for 30 seconds at a flow rate of 8 uL/min on a CM5 anti-humanFc-coupled surface. Approximately 120 RU of each antibody were captured. 10 nM hGITR.mmH (soluble monomeric hGITR, SEQ ID NO: 45) or 5 nM hGITR.mFc (dimeric Macaca fasicularis GITR, SEQ ID NO: 46) were injected over this surface for 5 minutes at a flow rate of 50 uL/min. Dissociation was measured for 10 min. The KD and t_{1/2} were calculated by fitting the double-referenced sensorgrams to a 1:1 binding model.
# [5] = biological target: T1, human GITR expressed on the cell surface; test: flow cytometry on Jurkat/hCD20/hGITR cells; max MFI over secondary antibody alone
# Description: as §1, with “μg/mL. Cells were then stained with LIVE/DEAD Fixable Green Dead Cell Stain according to the manufacturer's instructions.” for “μg/mL.”
# ^a The maximum MFI was the highest mean MFI value within the concentration range tested (18 pM to 300 nM). ^b Fold binding was calculated as the maximum MFI above background (secondary antibody alone). h, Human; Mf, Macaca fascicularis (cynomolgus monkey); ND, Not determined because concentration-dependent binding was not observed
# [6] = biological target: T2, hGITR.mFc (dimeric recombinant human …); test: SPR Biacore T-200; purified antibody captured on anti-human Fc; 5 nM hGITR.mFc
# Description: as §2
binder,measurement,setting,value
"mAb1 (antibody, human IgG1, kappa, V domains shown, Human IgG1; N101D variant of CompAb1; also called N101D Variant; N101D) VH: QVQLQESGPGLVKPSETLSLTCIVSGGSISGYFWNWIRQPPGKGLEWIGYIYYSGTTIYNPSLKSRFTISLDTSKNQFSLKLTSVTAADTAVYYCARESYDPSPRYFDHWGQGTLVTVSS VL: not shown",EC50,[1],1.96 nM
same,"EC50, anti-CD3-mediated primary CD4+ T-cell proliferation, Donor 1900G",[2],0.43 nM
same,"EC50, anti-CD3-mediated primary CD4+ T-cell proliferation, Donor 2000U",[2],0.0391 nM
same,"EC50, anti-CD3-mediated primary CD4+ T-cell proliferation, Donor 3600Y",[2],17.2 nM
same,"EC50, anti-CD3-mediated primary CD4+ T-cell proliferation, Donor 3800U",[2],0.107 nM
same,"EC50, anti-CD3-mediated primary CD4+ T-cell proliferation, Donor 34001",[2],0.193 nM
same,"Fold Change in Activity, anti-CD3-mediated primary CD4+ T-cell proliferation, Donor 1900G",[2],3.14 fold
same,"Fold Change in Activity, anti-CD3-mediated primary CD4+ T-cell proliferation, Donor 2000U",[2],2.45 fold
same,"Fold Change in Activity, anti-CD3-mediated primary CD4+ T-cell proliferation, Donor 3600Y",[2],2.3 fold
same,"Fold Change in Activity, anti-CD3-mediated primary CD4+ T-cell proliferation, Donor 3800U",[2],2.45 fold
same,"Fold Change in Activity, anti-CD3-mediated primary CD4+ T-cell proliferation, Donor 34001",[2],2.62 fold
same,"Fold Change in Activity, anti-CD3-mediated primary CD4+ T-cell proliferation, Donor 41003",[2],2.54 fold
same,Kd,[3],0.0813 nM
same,t1/2,[3],5.75 h
same,Kd,[4],1.18 nM
same,t1/2,[4],7.58 min
same,Fold Binding,[5],290 fold
same,Kd,[6],0.104 nM
same,t1/2,[6],1.2 h
